The record followed here is a protein production outcome set (Wang et al. 2014).

This series in a line: label from the status in PepcDB records.
For “MKINKLLFGMLLLLLASCGSSRKVEKQSEQVAVQEINLTPEQQRKYDYFFLEASRLKVKKEYTAAFDLLQHCLAINPTGSAALYEIAQYYLFLKQAPQGQEALEKAVAYAPDNYWYSQALAGLYQQQDQKEKAIGILEKMATRFPAKQDPLFNLLDLYNQKEDYGKVISTLNRIEEKTGKNEQITMEKFRIYLQMKDDKKAFEEIESLVNEYPMDYRYQVILGDVYMQNGKKQEAYDTYKKVLAAEPDNPMALFSLASYYEQTGQKELFEQQMDTLLLNRKVPSDTKVNVMRQFIVQSEQEGKDSTQVIGLFDRMMQMDMDDVQIPMLYAQYLLSKGMEAQSIPVLEQVVQIDPTNKAARMTLLGSAIRKNDYEQVIKICEPGIEATPDALEFYFYLVIAYNQAEHWDDVLEVSRKALEHVTPESDKQMVSDFYTIIGDVYHTKKLMKEAYAAYDSALVYNPSNIGALNNYAYYLSVERRDLDKAEEMSYKTVKAAPNNATYLDTYAWILFEKGNYAEARIYIDDAIKNTKPEEESSVVFEHCGDIYFMTGDVEGALKYWKKALELGTESKTLKQKIEKKKYIAE”, the protein production entry is recorded as “failed”. On to “MYKSLFTIIILLYSASSYAKSESPPASTITFIAQIDHVELNKTALSHDMKLVLADRFYFKTSNPCETNSISARPESMDITDKAYADKLKKLETPFLDDRYFFMTINQCDGNGTPMLTDIKVCTTELCGAEYTKKMSTVWLDETLKPTAKRLAIYFIQSPLPYDEEKKQWKVTGWYISSTDNQSSTKQIAFEGYTDTDNLSDSKFISSFKSWFESGKIKNIANYNPKGERDGKYESYYNSNGNVYESLSFSNGLINGEFITYYENGAIESKRHFNNDKIKDGECPHFYEDGKIKQQHSYLNSKLDGPAYEYYPDGKLMQENFYQQSVLIGNDTSYYQSGKISSIHNRNSRGQYDGANERYSEEGKLLSKSVYKDGKQISVQTWYENGQKEEEKHFDEQGQLNGLVKQWYKNGNLAKSQNYKHDILDGNSEEWYENGIPESLYPYKNGKTDGIAKSWNKYGKLTYSIEYKNGVENGAYRNWSKNTGKLTKETLYVNGIRQGVEKEFNDRTGKLLTSTQYVNNKRHGTEETYDQNGIKYITCYQNDQKLSSLDNPTQIKDNATTGDSSAQFALGKYEFICANIDEGIKWLTKSAEQKNTDAIYFLATAYKGNGIPANNEKYLAYLQQAATLGSSNAQAEIGYLYLIGKELPQNLPDAGVWFKKAAAQGNFAAHFYLGRMYQNGDGVERNMEKARFHLSNAAEGGIEPALKALNELEHQTK”, for which the protein production entry is reported as “failed”. In the case of “MTQETALGAALKSAVQTMSKKKQTEMIADHIYGKYDVFKRFKPLALGIDQDLIAALPQYDAALIARVLANHCRRPRYLKALARGGKRFDLNNRFKGEVTPEEQAIAQNHPFVQQALQQQSAQAAAETLSVEAEAAESSAAE” it was “not failed”; in that of “MNYLPMMIVFPLIMAIIMNLLHGKEKAVKYITFITAAILIILPFISQYGYYYFGGHGVVNGWVSGIAYLYNPAKQAIIVTLSLIASLVLITGMGEKLKNNMFVTLSLMGFASIAAIVLADDIFNLYVFFEIVSIVQAGLVFLSGTEEAYKAGLRYMIMGNVAAALMLLGIAFLLASTGTLNITDMKHYLLVDNPMIYGGLLLLIVGLAYGAGLPPFHNVKADLYARSKGFISAMLQTYSKFVLVGLMIIILKLFNGLDYFASAHAVLIALGVLAMVFGVVMALLQSDYKKLLAYHAISQGGYVATGLALGTPLGIVAGIFHAINHVIYKSALFLGAYIVSCKRGSNLHKLGGLLPLMPSVAFMVLCAKLAISGIPPFNGFQSKWMLAQAAMQVNMPEIAIIMIIVSIGTFVSMMKAFYLIYLKPVDEETLKEYQNKEVPKLAVFSLFVLTALCIIIGLYPDIVTNYLWDYAKELGVNYYLK”, “failed”; in that of “MTMIKGYSEKVEKIYSKLRKTEEDNLKSRREEIKDKLPKIIKIDSEISRLCLKLSTNIFKKINNRDEYIKSLKNEITNLRMERSELLVSNGYPMDYLQMHYNCSKCKDTGYIGAHKCSCYKKYLVQLYYDNSDLKSLLNENNFENFNINYYSNRKSEDEPRTPRKNMEKILSLSLNYIKNFSDSNENLLFYGNSGTGKTFLSHCIAKDLLERGFLVIYKTSADLAQELKQLQFEPNPTLEDLIINCDLLIIDDLGTEQISAFSKTCFFNLINKKLLSQKKMLISSNYNLEELTRLYSERITSRLFGDFTLCKFYGDDIRINRNLKNKKI”, “failed”. With “MDIEDLQTFVAVADAGGVSAAARRLGISKSIVSRRLLRVEAELGVQLLARTTRGAALTEAGITFRDHAARASAEIDTAKETILPTGELRGRLRVAMPLTFGPTHFAPVLADMARQHPQLHIHTSYSDRFVDLIAEGFDCAIRGAYLQDSNLIAKRVGPIHGKLVASPDYIKAHGSPGTLDELVTHQALMQGTEAWQFMDGDKIVTVQPQGRFKADSATALAAAAAAGLGIAWLPDCITYGYVASGALVPIMTRYPVPPGAAYVVRPPGQHPTRKVRALTEMLTEYFKRNPDVWGLDR” the entry was “failed”; with “MDYTASYYTDEELAKLFKAAKGDPLELPIVLAAYYGLRRSEIIGLRWDAIDFNPDDPKITIQFTVTEVNFGDGQGNVIIEKEGTKSKASKRTLPLVKPIADLLLQKKKDIENNRRLCGSCYNDKYLDFVHVNEIGERMKPNYISQHFALLLEKHGLKKIRFHDLRHSCASLLYANGVSLKQIQEWLGHSDISTTANIYTHLDYNSKIATANAILPVLFDQLEHHHHHH”, “failed”. With “MKLLLALMLFMTFFAHAADPEPGSQYLQAAEAGDRRAQYFLADSWLSYGDLNKAEYWAQKAADSGDADACALLAQIKITNPVSLDYPDAKKLAEKAANAGSKVGEITLARILVNTQAGRPDYPKAISLLQKASEDLDNDSAVDAQMLLGLIYANGVGIAADDEKAAWYFKRSSAISRTGYSEYWAGMMFLNGEPGFIEKNKQKALHWLNLSCLEGFDTGCEEFETLTNG” the entry was “failed”. Turning to “MTLSTINPMKKSRIDNIHHTQILFFSDENQIDQEAPYYDALLDLEKDYPEQIDKMKVYDKKEGWEDEIETVPTLMVVDQRHVVVKIEGCVKKKEDIIKPLQHVLSKLEHHHHHH”, the protein production result is “not failed”.

As for “MKQKLLVTLLGLSALGASPVFAANTNVDLAEDAYIYGYSIDEAYKFFYHTAVENNYPLNEFQNRRALADDSYTAHPTINNDTLHLMGWLDVAAEPVIVSVPDMDEGRYWILHTMDMGHYTNAAFSSRTRGTKGGQFMFAAQDWQGEVPASVDEVVRVDSNLVKLMGRIMAVNDEDAKVALNYMDQWNIRTLSEYLGKNGPKPVQRTYPDPKKSTWLERVNFVLCDGSMGNADKQWLDKYQSIGVEPCKTDFTPEQLKLAKVGEKKGMEHLVELAPKMTDARTLLGTRDTLGDAPRDIFAEGTYLGQWGLPPIEASYRKSDFDSIGQKLDGSKHDYVMRFKAPNVSEFWSVTIYGNDNRLMAKNDLNRHSRGDRTMKADKDGYYTIYMSANEKGRADDPNFLPVPEKPFYAIMRFYGADDAIQSGEYQMPEIKVVKLEHHHHHH”, the protein production result is reported as “not failed”. In the case of “MDSKEGKLTVIGEFDEMQILKKLKKRWESAKMATFGPFDPKKEAETAAAAEKKKKEENEREREREREEALYRSQSHHDTPVCPMHHHTTIVCDHDHGCIIS” it was “failed”; in that of “MPDTPAEGYGNTLSSLALDHNWRTIYPLGAYQLSGLAWVDPQALWLRQLPRLPFCQATLGASFLALDRVRGFILLINGENDHSEILNPYDLEPFLDANGLCLYRETLWFCRDTWLYRCHLPDWHVEKMLECRYPIYGVAVDETGIYVACQKSGYIHCFDETGREQYRLSAPGIGCENLALKDGYLWVSDRLEQSIYCLDRHSGHVEWVALTPFAQPTAFTFDATGQLWVAYGGEEAYLRDNPNNREAPLEIDYRDICLIHPLLYHTHREQHYTLSNGYLIEMAYVEELSPLDALHLDNLEWRIALPANSPRQKLLRVEPVGTPFRLETVADQQVAVFDFPELRPYEARLFGWRAWLEVRGMKYHLSFDNIDETQPLPSEFAAQYLVDNDELAMDQPIVQEAAREAVGTETNILRKMLKIRNYVYDRLSYAMRPTIETPDVVLKRGTGSCGEYVGVLLALARLNGIACRTVGRYKCPPYPQKRGIPLQPTYNHVWLEFYVPGVGWVPMESNPDDVVERGPYPTRFFMALPWYHVEVGKGIRFETTNYRDRGVRLGDLALNHVRFTIHSELPPLLLEHHHHHH”, “failed”. With “MDECTVTRHYEGKGRNAGRLGAVGCKNRHGEFRIGSGFKDKDRDNPPKIGTLITYRYRGFTRKGTPKFATFVRVRTDLEHHHHHH” the entry was “not failed”. In the case of “MEKVTLIATATMGLEALVAREVKDLGYEDVKVENGKVTFTSDVAAIPRANLWLRTADRVKLKVGEFKALTFDELFEKTKSLPWADIIPVHAEFPVIGRSVKSKLFSVSDCQAIVKKAVVESMKKRYKRGWFDENGPLYRIEVALHKDIATLTIDTSGTGLHKRGYRYLHSQAPLKETLAAAIIMLSHWKSDRPFADPFCGSGTIPIEAAMIGQNIAPGFNREFVSEQWHWIGSEHWDRAREEVEDMANYDQPLDILGSDIDHRMVELAQNNAMEAGFGDLISFKQMQVTDFRHKEEYGILIGNPPYGERIGEREEVEKMYQKMGEVFREHLETWSIYILTSHEGFEELYGKRATKKRKLYNGNIKTDYYQFFGPRPPRHPEGSQQ” it was “failed”. Turning to “MEISLLQAFALGIIAFIAGLDMFNGLTHMHRPVVLGPLVGLVLGDLHTGILTGDTLELVWMGLAPLAGAQPPNVIIGTIVGTAFAITTGVKPDVAVGVAVPFAVAVQMGITFLFSVMSGVMSRCDRMAENADTRGIERVNYLALLALGTFYFLCAFLPIYFGAEHAKTIIDVLPQRLIDGLGVAGGIMPAIGFAVLLKIMMKNVYIPYFILGFVAATWLKLPVLAIAAAALAMALIDLLRKSPEPTQPAAQKEEFEDGI”, the protein production entry is reported as “failed”. For “MKNKKYLQFGGIAAVILIVLFLVSLFSSDTRNFQEVDTSVAMAQLDAGNVAEAQIDDREQRVRLTLREPITVDEREGVEEILAQYPARTAPAIFEKVEASNTDSYTTNVTQESFLMSMLSFILPMVIIFGLLMFFLTRMQGGGMFGIGGSKAKQLTKDMPTNTFADVAGAEEAVDELHEIKDFLEDPTRYEALGAKIPRGVLLYGPPGTGKTLLARAVAGEAGVPFYSISGSDFVEMFVGVGASRVRDLFKQAKENSPCIIFVDEIDAVGRARGSGMGGGHDEREQTLNQLLVEMDGFGDRQGVILMAATNRPDVLDPALLRPGRFDRQIPVTNPDLRGREQILEVHAKGKPFAPDADIKALAKRTAGMSGADLANVLNEAALLTARVGGNVITADALEEATDRVVGGPRRSGKVISEKEKKVTAYHEGGHTLSAWALEDIERVYKVTILARGRTGGHAMTAQEDDKGMYNRNELFARLVFAMGGRSAEELVFGEPTTGASADIEMATKIARSMVTEYGMSPAVGMVKYGQEQGDPFSGRGGGGNLDHSQEVAATIDTEVQFLLDKAHEVSYSILAEYRDHLDRLAEKLLEKETLRRPDLEALFDDIVPRKVAEVFPDESTRFPRQENREPVKTPVELALERGEEPPKKFSILEASRATRERRRKELEAQGKLPVQPASSAGVAPAAGAAAGSYGTPPPADWSVPGSAGKHRSRAEEQPAEQGFPAQTPAQAPEQSPDSSGGRPNPYATPTASGEHPGMKAYGFGDSELMDQSTGAEHTPGNVSQESPTEMIGFRLPDHERSDYPEKAQKESVLDASETTEMPVVPDQPIDGDSGKSAEGTQENPENEGDNRG”, the protein production entry is listed as “failed”.

As for “MTLGSQHSPLFALVQETLRKRILSGAYAQGERLVEGDLAEEMGVSRIPVREALRALAAAGLVRIEPRRGASVASLSPEHARDIVEVRATLEALNARLAAQRRNPQQVADMDRAIRDGAHACERGDTAALVEQNRHFHELLGGVSTNAVLQDLMRSLRDRTALLFARNSVTRAADILDEHAGILQAVTAGDADLASLLAARHVHNAAQWYFERPVDRKAVAADTD”, the protein production entry is listed as “failed”. With “AQSILEKADEIRFPQDSFQVNVAIRTAAPDHAEDLYRYQVLSKGNENSIVMITEPASERGQAILMKGRDLWVFMPSVSQPIRLSLSQRLTGQVANGDIARANFTGDYHPQLLRNESIDDEDYYVLELTGIDRSVTYQKVLLWVNQSNFRPYKAEFYSVSGRLLKTSRYENFDNILGEMRPTRIIMEDALKSGEVSVLDYSDMKLRDLPDKIFTKDYLKR” the entry was “not failed”.
